Experimental findings from publication PMC6995776 (Journal of molecular biology, 2019) are described below.

What all share (experiment): ITC
On the technique in general: ITC needs no label: the signal is the heat of the interaction.

The target in test [1] is TbPRMT1 ENZ-Δ45PRO complex (Trypanosoma brucei, UniProt Q4GYA9 1-345).
Test [2] has as its target T1, TbPRMT1 ENZ-PRO complex (wild type) (Trypanosoma brucei, UniProt Q4GYA9 1-345).
The target in test [3] is TbPRMT1 ENZ-Δ21PRO complex (Trypanosoma brucei, UniProt Q4GYA9 1-345).
In test [4] the target is TbPRMT1 ENZ-Δ31PRO complex (Trypanosoma brucei, UniProt Q4GYA9 1-345).
The target in test [5] is T1, TbPRMT1 ENZ-PRO complex (wild type). This is another data set of the same source.

B1: Maltose Binding Protein (MBP)-fused TbRGG1 (natural protein)
chain: MVCSTICLFQRGQWGNEGSRGDQRNYDNRGGRGEWGDRGGQRGDNQRDYGDQRNYDNRGGRGEWGDRGGQRGDNQRDYGDQRNYDNRGGRGEWGDRGGQRGDNQRDYGDQRNYDNRGGRGEWGDRGGQRGDNQRDYGDQRNYDNRGGRGEWGDRGGQRGDNQRDYGDQRNYDNRGGRGEWGDRGGQRGDNQRNYDNRGGRGEWGDRGGQRGGNQRDNSNQFGYRNERDGGIGRQRSARDNFGAHDNRASDERGSTDPAVGEVFDEQAAKILYELKRRFKSSKTGKERRDVQREARRIVRRARVDPSTQDEKSVTLLLNCAATFRCYPHTEGIKQATEWMRKNIDGLSPQNVALFTNAIGALSVVDSDTILINEISPAVEACYGQMNPVELVMTLQAFQRGRITENEDLQVSLLQQLVTCVPQMPAPQLSTLAGVLVDTPLRKRDEATWQEIAKTVVSKAASGAENMHSREVITLLKATPRLGVPEDHSFHLVDRAIATVGFHTDEQIGELLEAVSYYRDPQKTCGRELNEKLDKLVDALWARLQKVAPFADAASVTTIMRAAHRSGVDVPRDIVSTLVQAVMRELRYHRFTFRRVASLSEALALQKVPAKELLVMLGDYCIGKRPPREERGENTPVDDHNSGIEERMDIYARFLGDLTKARIALENAHSSNAGNGEPGSSVSQILAQRLEDSVGSAPPRELLKSVRAICTAADDCPFRNRANDGKIIALSEQRIAKEGASFMEGVRKTTMENFLSAVSGIPQAQKVVEVLSHQTR
Usually Kd stands for the equilibrium constant for the complex coming apart. A higher Kd goes with lower affinity. Usually stoichiometry N stands for a count of units in the complex or per binding partner. For B1, the Kd amounted to 160 µM in test [1], 9 µM in test [2], 36 µM in test [3] and 86 µM in test [4]. Further, in test [5], the “stoichiometry N” value worked out at 1.
